# Source: the nanobody polyreactivity screen of Harvey et al. (2022)
# Experiment: yeast display, Sf9 membrane polyspecificity reagent, FACS + sequencing; frameworks hold sequencing errors
# In short: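 Nanobodies came from a synthetic yeast display library in Saccharomyces cerevisiae BJ5465, induced with galactose for 36–48 hours and stained for 1 hour at 4 °C with 10% biotinylated, detergent-solubilized Sf9 membrane reagent. Cells were enriched on streptavidin microbeads and then FACS-sorted, with low and high (top ~1%) gates set on anti-HA fluorescence for expression and streptavidin fluorescence for reagent binding. Each polyreactivity label reflects the gate a clone came from. Genes were amplified by colony PCR, sequenced by MiSeq 2 × 250 and filtered by CDR length.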
row,Sequence,polyreactivity (PSR sort gate)
1,QVQLVESGGGLVQAGGSLRLICAASGRIFVRNAMGWSRQAPGKERELVAAITSGGRTYYADSVKGRFTISRDNAQNTVYVQMNSLKPEDTAVYYCAARAGNASAIDVAYWGQGSQVTVSS,low polyreactivity
2,QVQLVESGGGLVQAGGSLRLSCAASGSTFRRYAMGWYRQAPGKEREISTSDGSTYYADSVKGRFTISRDNAKNTVYLQMNSLKPEDTAVYYCATEIEYYVGSVPDMGYWGQGTQVTVSS,low polyreactivity
3,QVQLVESGGGLVQAGGSLRLSCAASGSTFPSYAMGWYRQAPGKERELVAAINSGGGTNYADSVKGRFTISRDNAKNTVYLQMNSLKPEDTAVYYCAKSRYDYTKTEGGYWGQGSQVTVSS,low polyreactivity
4,QVQLVESGGGLVQAGGSLRLSCAASGRPFGGNTMGWYRQAPGKERALVAAISFSGGSTYYADSVKGRFSSSRDNAKNTVYFQMNSLKPEDTAVYYCARDDYSHSFLTYDYWGQGTQVTVSS,low polyreactivity
5,QVQLVESGGGLVQAGGSLRLSCAASGSIFAQNAMGWYRQAPGKERELVAAITSGGSTYYADSVKGRFTISRDNAKNTVYLQMNSLKPEDTAVYYCAARGWGPFYQYYYLGQGTQVTVSS,high polyreactivity
6,QVQLVESGGGLVQAGGSLRLSCAASGLIFSWYDMGWYRQAPGKERELVDAITTDGDDTYYADSVKGRFTISRDNAKNTVYLQMKSLKPEDTAVYYCDAVSEVAIRYPDRDYDSWGQGTQVTVSS,low polyreactivity
7,QVQLVESGGGLVQAGGSLRLSCAASGFTFATNAMGWYRQAPGTERELVAAISSRGGSTYYADSVKGRFTISRDNAKNTVYLQMNSLKPEDTAVYYCNAYRRLGGYDYWGQGTQVTVSS,high polyreactivity
8,QVQLVESGGGLVQAGGSLRLSCAASGSIFYWYAMGWYRPAPGKERELVAAITSSSGRTRYADSVKGRFTISRDNAKNTVYLQMNSLKPEDTAVYYCAAGRWGSYYTPRPYGYWGQGTQVTVSS,high polyreactivity
9,QVQLVESGGGLVQAGGSLRLSCAASGITYRYNAMGWYRQAPGKEREMVAAISTSGGNTYYADSVKGRFTISRDNAKYTVYLQLNSLKPEDTAVYYCAVDGEYWYDYDGDYWGQGTQVTVSS,low polyreactivity
10,QVQLVESGGGLVQAGGSLRLSCAASGFIFASYAMGWYRQAPGKERELVAAISSSGGRTYYADSVKGRFTISRDNAKNTVYLQMNSLKPEDTAVYYCAAPRIYIPAEYYSWGQGTQVTVSS,high polyreactivity
11,QVQLVESGGGLVQAGGSLRLSCAPSGSTFPLYAMGWYRQAHGNEREFVAAIRWIGGSTYYADSVKGRFTISRDNAKNTVYLQMNSLKPEDTAVYYCAADYVVSAFDYWGQGTQVTVSS,low polyreactivity
12,QVQLVESGGGLVQAGGSLRLSCAASGSTFGHYAMGWSRQAPGKERELVAAISWSGASTYYADSVKGRFTISRDNAKNTVYLQMNSLKPEDTAVYYCATVGPWPGEYDYWGQGTQVTVSS,low polyreactivity
13,QVQLVESGGGLVQAGGSLRLSCAASGLTFRYYAMGWYRQAPGKERELVAAISWSGGSTYYADSVKGRFTISRDNAKNTVYLQMNSLKPEDTAVYFCNAELYPQWYDSGQTMEYWGQGTQVTVSS,high polyreactivity
14,QVQLVESGGGLVQAGGSLRLSCAASGGTLAYYAMGWYRQAPGKERELVAAITRSGGSTYYSDSVKGRFTISRDNAKNTVYLQMNSLNPEVTAVYYCAALLAYWKNRWHIEYDYWGQGTQVTVSS,low polyreactivity
15,QVQLVESGGGLVQAGGSLRLSCAASGSTIYYYAMGWYRQAPGKERELVASISDDGSTNYADSVKGRFTISRDNAKNTVYLQMNSLKPEDTAVYYCAAVWWHQFGSAWYQMGYWGQGTQVTVSS,low polyreactivity
16,QVQLVESGGGLVQAGGSLRLSCAASGRTFVFNAMGWYRQAPGKERELVAGISGSGGSTYYADSVKGRFTISRDNAKNTVYLQMNSLKPEDTAVYYCATKFPRKELDQDSVSGLGYWGQGTQVTVSS,low polyreactivity
17,QVQLVESGGGLVQAVGSLRLSCAASGRIFPYYAMGWYSQAPGKERELVAVFTIGGNSYYADSVKGRFTMSRDNAKNTVYLQMNSLKPEDTAVYYCAASAYSYYRFDYWGQGTQVTVSS,low polyreactivity
18,QVQLVESGGGLVQAGGSLRLSCAASGYIFPFYAMGWYRQAPGKQRELVAAITESGGSTYYADSVKGRFTISRDNAKNNVYLQMNSLKPEDTAVYYCAKEVVKHPRGKLDYWGQGTQVTLSS,low polyreactivity
19,QVQLVESGGGLVQAGGSLRLSCAASGRIFGYAMGWYRQAPGKERELVAAITSSGGRTYYADSVKGRFTISRDNAKNTVYLQMNSLKPEDTAVYYCAAEYLAVSGYWYDYWGQGTQVTVSS,high polyreactivity
20,QVQLVESGGGLVQAGGSLRLSCAASGRTFLLNAMGWYRQAPGKERELVAAITGSGGRTNYADSVKGRFTISRDNAKNTVYLQMNSLKPEDTAVYYCNARFPDWALSEISHSTTYGYWGQGTQVTVSS,low polyreactivity
21,QVQLVESGGGLVQAGGSLRLSCADSGRTFVGNAMGWYRQAPGKGWEFVAAISRSGGSTNYADSVKGRFTISRDNAKNTVYLQMKSLKPEDTAVYYCAARDRFGGIRRYIYWGQGTQVTVSS,high polyreactivity
22,QVQLVESGGGLVQAGGSLRLSCAASGFTFYRYAMGWYRQAPGKESELVAAISGSGGSTYYADSVKGRFTISRDNAKNTVYLQMNSLKPEDTAVYYCNTVWFYGAKYDYWGQGTQVTVSS,high polyreactivity

row,Sequence,polyreactivity (PSR sort gate)
1,QVQLVESGGGLVQAGGSLRLSCAASGSIFPHNAMGWYRQAPGKERELVAAISTSGGRTYYADSVKGRFTISRDNAKNTVYLQMNSLKPVDTAVYYCNARSVRSRYDYWGQGTQVTVSS,high polyreactivity
2,QVQLVESGGGLVQAGGSLRLSCAASGRIFPGYAMGWYRQAPGKERELVAAISTNGGRTYYADSVKGRFTISRDNAKNTVYLQMNSLKPEDTAVYYCNAARAVYTQKRFDSWGQGTQVTVSS,high polyreactivity
3,QVQLVESGGGLVQEGGSLRLSCAASGFIFYRYTKGWYRQAPGKERELVAGISSRGTRTYYADSVKGRFTISRDNAKNTVYLQMNSLKPEDNAVYYCAKVDGSKRYNYWGQGTQVTVSS,high polyreactivity
4,QVQLVESGGGLVQAGGSLRLSCAASGLIFGWYAMGWYRQAPGKERELVASISRSGGSTYYADSVKGRFTISRDNAKNTVYLQMNSLKPEDTAVYYCAALYYGFRLTYGYDYWGQGTQVTVSS,high polyreactivity
5,QVQLVESGGGLVQAGGSIRLSCAASGRIFYAYTMGWYRQAPVKERELVAAIRRRGTTYYADSVKGRFTISRDNAKNTVYLQMNSLKPDDTAVYYCAKDALGYRTSSALLGDYWGQGTQVTVSS,high polyreactivity
6,QVQLVESGGGLVQAGGSLRLSCAASGFIFSYCAKGRYRQAPGKERELVAAISRSGGRTYYADSVKGRYTISRDNAKNTVYLQMNSLKPEDTAVYYCAAPVSLRPIYDYWGQGTQVTVSS,high polyreactivity
7,QVQLVESGGGLVQAGGSLRLSCAASGRTFISIVMAWYRQAPGKERELVAAIRSSGRTYYADSVKGRFTISRDNAKITVYLQINSLKPVDTAVYYCAAPGGLLGSGYWGQGTLVTVSS,low polyreactivity
8,QVQIVESGGGLVQAGGSLRLSCAASGSIFIFYAMGWYRQAPGKERELVADITSDGASTYYADSVKGRFTISRDNAKNTVYLQMNSLKPEDTAVYYCAADYIDSSAYDYWGQGTQVTVSS,low polyreactivity
9,QVQLVESGGGLVQAGGRLRLSCAASGRIFKPNAMGSYRQAPGKEREFVARITRNTGSTYYADSVKGRFSISRDNEKNTVYLQMNSLKPEDNAVYDCAAGAPSYYYYWGHGTQVTVSS,high polyreactivity
10,QVQLVESGGGLVQAGGSLRLSCAASGSIFSWYAMGWYRQAPGKERELVAAISGITGSTYYADSVKGRFTISRDNAKNTVYLQMNSLKPEDTAVYYCRALAGYASGMDYWGQGTQVTVSS,high polyreactivity
11,QVQLVESGGGLVQAGGSLRLICAASGSTFAYYVMGWYRPAPGTEREFVATITGSGGRTYYADSVKGRFTISRDNAKNTVYLQMISLKPEDTAVYYCAAGVYTGQHEYDYWGQGTQVTVSS,low polyreactivity
12,QVQLVESGGGLVQAGGSLRLSCAASGRTFERYAMGWYRQAPGKERELVAAISSGGSTNYADSVKGRFTISRDNAKNTVYLQMNSLKPEDTAVYYCNVDWAVKDPSYVSQGEGDYWGQGTQVTVSS,low polyreactivity
13,QVQLVESGGGIVQAGGSLRLSCAASGSIFSYYAMGWYRMAPGKERELVAGITGGGSTDYADSLKGRFTISRDNAKNTVYLQMNSLKPEDTAVYYCAKRYVPWRPYDYWGKGTQVTVSS,low polyreactivity
14,QVQLVESGGGLVQAGGSLRLSCAASGFTFVKNAMGWYRQAPGKERELVAAITGSAGRTYYADSVKGRFTISRANAKNTVYLQMNSLKPEDTAVYYCNVYYGYFRSRYGYWGQGTQVTVSS,high polyreactivity
15,QVQLVESGGGLVQAGGSLRLSCAASGSIFPYYAMGWYIQAPGKERELVAVITTSGGRTYYADSVKGRFTISRDNAKNTVYLQMNSLKPEDTAVYYCATDVRQGSGWRYYYWGQGTQVTVSS,high polyreactivity
16,QVQLVESGGGLVQAGGSLRLSCAASMGWYRQAPGKERELVAITRTTRTYYADSVKGRFTISRDNAKNTVYLQMNSLKPVDTAVYYCAAPNGPSPYWYNYWGQGTQVTVSS,low polyreactivity
17,QVHLVESGGGLVQAGGSLRLSCAASGYTSKTYAMGWYRQAPGKEMELVAAINWGSGSTYYADSVKGRFTISRDNAKNTVYLQMNSLKPEDTAVYYCAAEGYYNWYVGYGYWGQGTQVTVSS,high polyreactivity
18,QVQLVESGGGLVQAGGSLRLSCAASGRTFSHYAMGSYRQAPGKEREFVADITRSGGSTYYADSVKGRFTISRDNAKNTVYLQMNSLKPEDTAVYYCNAESYFEIYDYWGQGTQVTVSS,high polyreactivity
19,QVQLVESGGGLVQAGGSLRLSCAASGFTFYRYAMGWYRQAPGKERELVAAITSGGSTNYADSVKGRFTISRDNANNTVYLQMNSLKPEDTAVYYCNAGRYVRWWWYSPDDYWGQGTQVTVSS,high polyreactivity
20,QVQLVESGGGLVQAGGSLRLSCAASGSIFGFYAMGWYRQAPGKERELVAAITRSGDSTYADSVKGRFTISRDNAKNTVYLQMNSLKPEDTAVYYCATYWQYRYDYWGQGTQVTVSS,low polyreactivity
21,QVQLVESGGGLVQAGGSLRLSCAASGRIFYHNAMGWYRQAPGKERELVAVISWSGTRTYYADSVKGRFTISRDNAKNTVYLQMNSLKPEDTAVYYFNVEPYYTSYWIYPYIYTYDYWGQGTQVTVSS,high polyreactivity
